Experiment [1] deals with Human Serum Albumin (HSA) (human, UniProt P02768 25-609). The experiment can be described thus: yeast display selection.
The next experiment addresses T1, hen egg white lysozyme (hen, UniProt P00698 19-147, biotinylated (HEL-b); sites not stated).
T1 construct: also called lyzozyme; HEL-b (biotinylated)
The experiment can be described thus: yeast display selection.

Human Serum Albumin (HSA), sequence (P02768 25-609 limits assumed): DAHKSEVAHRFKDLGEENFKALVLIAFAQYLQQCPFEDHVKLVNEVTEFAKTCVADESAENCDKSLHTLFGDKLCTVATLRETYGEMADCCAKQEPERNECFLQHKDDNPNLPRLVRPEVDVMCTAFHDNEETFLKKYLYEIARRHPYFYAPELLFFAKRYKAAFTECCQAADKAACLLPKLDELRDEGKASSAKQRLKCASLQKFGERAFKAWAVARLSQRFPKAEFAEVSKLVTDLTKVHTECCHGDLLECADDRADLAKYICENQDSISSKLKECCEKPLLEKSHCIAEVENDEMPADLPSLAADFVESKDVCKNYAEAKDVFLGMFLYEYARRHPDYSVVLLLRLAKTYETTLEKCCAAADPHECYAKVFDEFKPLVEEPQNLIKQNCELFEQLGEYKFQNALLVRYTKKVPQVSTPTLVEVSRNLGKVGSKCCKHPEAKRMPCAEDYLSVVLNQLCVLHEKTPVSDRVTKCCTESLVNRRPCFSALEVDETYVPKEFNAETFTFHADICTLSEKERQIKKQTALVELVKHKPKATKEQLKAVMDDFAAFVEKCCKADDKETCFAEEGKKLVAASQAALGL
T1 sequence (P00698 19-147 limits assumed): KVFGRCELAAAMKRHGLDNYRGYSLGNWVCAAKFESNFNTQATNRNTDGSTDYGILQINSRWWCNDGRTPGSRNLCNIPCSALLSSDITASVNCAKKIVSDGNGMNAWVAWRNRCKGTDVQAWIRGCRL

B1: SEQ ID NO 10 (designed binder)
chain: VSDVPRDLEVVAATPTSLLISWDAPAVTVRYYRITYGKTGHKSSDHEFTVPGSKSTATIGGMKGGVDYTITVYAVTGRGDSPASSKPISINYRFER
On to B1, for which the binding result in experiment [1] was “binds”.

B2: SEQ ID NO 83 (designed binder)
chain: VSDVPRDLEVVAATPTSLLISWDAPAVTVRYYRITYGEAHEYYYQEFTVPGSKSTATISRSSSSVDYTITVYAVTGRGESPASSKPISINYYGRY
Regarding B2, the binding result with hen egg white lysozyme is on record as “binds”.

B3: SEQ ID NO 26 (designed binder)
chain: VSDVPRDLEVVAATPTSLLISWDAPAVTVRYYRITYGKTARKYHMQEFTVPGSKSTATISGIKRGTDYTITVYAVTGRGDSPASSKPISINYNSEH
For the molecule B3, in experiment [1], the binding result was “binds”.

B4: SEQ ID NO 9 (designed binder)
chain: VSDVPRDLEVVAATPTSLLISWDAPAVTVRYYRITYGQLDKKHHDAEFTVPGSKSTATITRLKRGRDYTITVYAVTGRGDSPASSKPISINYSPER
Turning to B4, the binding result in experiment [1] is recorded as “binds”.

B5: SEQ ID NO 77 (designed binder)
chain: VSDVPRDLEVVAATPTSLLISWDAPAVTVRYYRITYGEYRRRARQEFTVPGSKSTATISEHEPLVDYTITVYAVTGRGESPASSKPISINYYSYY
As to B5, the binding result in the experiment with hen egg white lysozyme was “binds”.

B6: SEQ ID NO 76 (designed binder)
chain: VSDVPRDLEVVAATPTSLLISWDAPAVTVRYYRITYGESSGRYRQEFTVPGSKSTATISRYPHGVDYTITVYAVTGRGESPASSKPISINYAKNV
As for B6, the binding result in the experiment with hen egg white lysozyme is listed as “binds”.

B7: SEQ ID NO 27 (designed binder)
chain: VSDVPRDLEVVAATPTSLLISWDAPAVTVRYYRITYGLTKRKSLISEFTVPGSKSTATIIGLKAGKDYTITVYAVTGRGDSPASSKPISINYKTEN
With B7, in experiment [1], the binding result is on record as “binds”.

B8: SEQ ID NO 24 (designed binder)
chain: VSDVPRDLEVVAATPTSLLISWDAPAVTVRYYRITYGEASKNHRQHEFTVPGSKSTATISRIKRGTDYTITVYAVTGRGDSPASSKPISINYSPES
In the case of B8, the binding result in experiment [1] is “binds”.

B9: SEQ ID NO 30 (designed binder)
chain: VSDVPRDLEVVAATPTSLLISWDAPAVTVRYYRITYGIPAKKHHTHEFTVPGSKSTATITGLKSGVDYTITVYAVTGRGDSPASSKPISINYRTET
As for B9, the binding result in experiment [1] is reported as “binds”.

B10: SEQ ID NO 11 (designed binder)
chain: VSDVPRDLEVVAATPTSLLISWDAPAVTVRYYRITYGKKDRASHLKEFTVPGSKSTATIGHIKGGYDYTITVYAVTGRGDSPASSKPISINYSGEP
B10: the binding result in experiment [1] is recorded as “binds”.

B11: SEQ ID NO 79 (designed binder)
chain: VSDVPRDLEVVAATPTSLLISWDAPAVTVRYYRITYGERRRRYGQEFTVPGSKSTATISSRSRGVDYTITVYAVTGRGESPASSKPISINYLYPY
Turning to B11, the binding result with hen egg white lysozyme is reported as “binds”.

B12: SEQ ID NO 12 (designed binder)
chain: VSDVPRDLEVVAATPTSLLISWDAPAVTVRYYRITYGRTKGKSKLKEFTVPGSKSTATIPGLKQGEDYTITVYAVTGRGDSPASSKPISINYMFER
As to B12, the binding result in experiment [1] is given as “binds”.

B13: SEQ ID NO 31 (designed binder)
chain: VSDVPRDLEVVAATPTSLLISWDAPAVTVRYYRITYGEVHGHHTAHEFTVPGSKSTATIVRLKRGKDYTITVYAVTGRGDSPASSKPISINYCPER
As to B13, the binding result in experiment [1] is “binds”.

B14: SEQ ID NO 16 (designed binder)
chain: VSDVPRDLEVVAATPTSLLISWDAPAVTVRYYRITYGITGKEKSFVEFTVPGSKSTATIRDVKKGKDYTITVYAVTGRGDSPASSKPISINYRAET
Regarding B14, the binding result in experiment [1] is recorded as “binds”.

B15: SEQ ID NO 18 (designed binder)
chain: VSDVPRDLEVVAATPTSLLISWDAPAVTVRYYRITYGHTAKTRHHHEFTVPGSKSTATICKSRRGSDYTITVYAVTGRGDSPASSKPISINYQAET
On to B15, for which the binding result in experiment [1] is recorded as “binds”.

B16: SEQ ID NO 84 (designed binder)
chain: VSDVPRDLEVVAATPTSLLISWDAPAVTVRYYRITYGEAGYSGGQEFTVPGSKSTATISERAEYVDYTITVYAVTGRGESPASSKPISINYERRY
Take B16: the binding result with hen egg white lysozyme was “binds”.

B17: SEQ ID NO 85 (designed binder)
chain: VSDVPRDLEVVAATPTSLLISWDAPAVTVRYYRITYGELSRSGSQEFTVPGSKSTATISGSYGYVDYTITVYAVTGRGESPASSKPISINYEQSY
For the molecule B17, in the experiment with hen egg white lysozyme, the binding result is listed as “binds”.

B18: SEQ ID NO 25 (designed binder)
chain: VSDVPRDLEVVAATPTSLLISWDAPAVTVRYYRITYGEKPRKYRSSEFTVPGSKSTATIRHSKHGKDYTITVYAVTGRGDSPASSKPISINYMREI
As for B18, in experiment [1], the binding result is given as “binds”.

B19: SEQ ID NO 19 (designed binder)
chain: VSDVPRDLEVVAATPTSLLISWDAPAVTVRYYRITYGYGAANRRAHEFTVPGSKSTATISGLKRGRDYTITVYAVTGRGDSPASSKPISINYRHEL
As to B19, the binding result in experiment [1] is on record as “binds”.

B20: SEQ ID NO 29 (designed binder)
chain: VSDVPRDLEVVAATPTSLLISWDAPAVTVRYYRITYGDRAKNTRIKEFTVPGSKSTATISGLKRGRDYTITVYAVTGRGDSPASSKPISINYRLEG
For B20, the binding result in experiment [1] is listed as “binds”.

B21: SEQ ID NO 35 (designed binder)
chain: VSDVPRDLEVVAATPTSLLISWDAPAVTVRYYRITYGKNGRHNLDHEFTVPGSKSTATISGLKRGVDYTITVYAVTGRGDSPASSKPISINYHNEN
As for B21, in experiment [1], the binding result is recorded as “binds”.

B22: SEQ ID NO 81 (designed binder)
chain: VSDVPRDLEVVAATPTSLLISWDAPAVTVRYYRITYGESHHYGPQEFTVPGSKSTATISLLGAHVDYTITVYAVTGRGESPASSKPISINYHGLY
Turning to B22, the binding result with hen egg white lysozyme was “binds”.

B23: SEQ ID NO 28 (designed binder)
chain: VSDVPRDLEVVAATPTSLLISWDAPAVTVRYYRITYGKVKAKAPLVEFTVPGSKSTATISSLKTGKDYTITVYAVTGRGDSPASSKPISINYRYEG
Turning to B23, the binding result in experiment [1] is “binds”.

B24: SEQ ID NO 7 (designed binder)
chain: VSDVPRDLEVVAATPTSLLISWDAPAVTVRYYRITYGKTEGHRHSHEFTVPGSKSTATISGLKHGDDYTITVYAVTGRGDSPASSKPISINYRMEK
For the molecule B24, the binding result in experiment [1] is on record as “binds”.

B25: SEQ ID NO 17 (designed binder)
chain: VSDVPRDLEVVAATPTSLLISWDAPAVTVRYYRITYGQRVGKTKVHEFTVPGSKSTATIRGLKRGKDYTITVYAVTGRGDSPASSKPISINYFPET
Take B25: the binding result in experiment [1] was “binds”.

B26: SEQ ID NO 34 (designed binder)
chain: VSDVPRDLEVVAATPTSLLITWDAPAVTVRYYRITYGVAGKTKPRSEFTVPGSKSTATIPHLKLGHDYTITVYAVTGRGDSPASSKPISINYRAEH
B26: the binding result in experiment [1] is given as “binds”.

B27: SEQ ID NO 21 (designed binder)
chain: VSDVPRDLEVVAATPTSLLISWDAPAVTVRYYRITYGDSRHHPRAHEFTVPGSKSTATITGCKRGHDYTITVYAVTGRGDSPASSKPISINYRYEH
For the molecule B27, the binding result in experiment [1] is reported as “binds”.

B28: SEQ ID NO 22 (designed binder)
chain: VSDVPRDLEVVAATPTSLLISWDAPAVTVRYYRITYGKSHGHRQKHEFTVPGSKSTATISDYRQGGDYTITVYAVTGRGDSPASSKPISINYKGEL
Take B28: the binding result in experiment [1] was “binds”.

B29: SEQ ID NO 33 (designed binder)
chain: VSDVPRDLEVVAATPTSLLISWDAPAVTVRYYRITYGVMHDKHPKKEFTVPGSKSTATISGLKRGRDYTITVYAVTGRGDSPASSKPISINYKSEA
Take B29: the binding result in experiment [1] is recorded as “binds”.

B30: SEQ ID NO 86 (designed binder)
chain: VSDVPRDLEVVAATPTSLLISWDAPAVTVRYYRITYGELPSQGRQEFTVPGSKSTATISYRRELVDYTITVYAVTGRGESPASSKPISINYGSSY
Take B30: in the experiment with hen egg white lysozyme, the binding result was “binds”.

B31: SEQ ID NO 78 (designed binder)
chain: VSDVPRDLEVVAATPTSLLISWDAPAVTVRYYRITYGEQRARSRQEFTVPGSKSTATISEQRRRVDYTITVYAVTGRGESPASSKPISINYRALL
Regarding B31, in the experiment with hen egg white lysozyme, the binding result is reported as “binds”.

B32: SEQ ID NO 14 (designed binder)
chain: VSDVPRDLEVVAATPTSLLISWDAPAVTVRYYRITYGVLSSTKHLKEFTVPGSKSTATISGLKLGRDYTITVYAVTGRGDSPASSKPISINYRMES
For B32, in experiment [1], the binding result is recorded as “binds”.

B33: SEQ ID NO 23 (designed binder)
chain: VSDVPRDLEVVAATPTSLLISWDAPAVTVRYYRITYGVMGDTKKVKEFTVPGSKSTATIERIKLGRDYTITVYAVTGRGDSPASSKPISINYRKEH
Turning to B33, the binding result in experiment [1] was “binds”.

B34: SEQ ID NO 32 (designed binder)
chain: VSDVPRDLEVVAATPTSLLISWDAPAVTVRYYRITYGMISGDKRRREFTVPGSKSTATIDRLKLGRDYTITVYAVTGRGDSPASSKPISINYRLES
B34: the binding result in experiment [1] is given as “binds”.

B35: SEQ ID NO 13 (designed binder)
chain: VSDVPRDLEVVAATPTSLLISWDAPAVTVRYYRITYGTSVDDRKLREFTVPGSKSTATISRLKRGRDYTITVYAVTGRGDSPASSKPISINYRAEN
Consider B35, for which, in experiment [1], the binding result is “binds”.

B36: SEQ ID NO 15 (designed binder)
chain: VSDVPRDLEVVAATPTSLLISWDAPAVTVRYYRITYGSRASHRKLTEFTVPGSKSTATISGLKTGRDYTITVYAVTGRGDSPASSKPISINYRTEH
Consider B36, for which, in experiment [1], the binding result is listed as “binds”.

These data come from patent US9296810 (Novartis, dated 2016).
